In patent US20260049138A1 (Chugai, published 2026):
Substitutions are numbered along the chain they refer to. In names and notes the source's numbering stands.

Target: T1, CD3ε homodimer protein (human, UniProt P07766 23-126, limits assumed, sulfo-tag or biotin label in the ECL assays; amine-coupled to the chip in SPR)
T1 construct: also called human CD3ε homodimer protein; CD3 (CD3ε)
Test: SPR Biacore T200; CD3ε homodimer on CM4 chip;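 also: Single-residue variant antibodies injected as analyte over CD3ε homodimer immobilized by amine coupling, run at 25 °C in HBS-EP+ buffer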

T1 sequence (P07766 23-126 limits assumed): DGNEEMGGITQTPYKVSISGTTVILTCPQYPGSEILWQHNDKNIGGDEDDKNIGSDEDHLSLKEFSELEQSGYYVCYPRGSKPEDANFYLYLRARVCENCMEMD

B1: CE115HA000 D101Q one-arm antibody (antibody, human IgG1, kappa, L234A L235A, N297A, name in Kabat numbering)
heavy: QVQLVESGGGVVQPGRSLRLSCAASGFTFSNAWMHWVRQAPGKGLEWVAQIKAKSNNYATYYAESVKGRFTISRDDSKNSLYLQMNSLKTEDTAVYYCRYVHYGAYYGVQAWGQGTTVTVSSASTKGPSVFPLAPSSKSTSGGTAALGCLVKDYFPEPVTVSWNSGALTSGVHTFPAVLQSSGLYSLSSVVTVPSSSLGTQTYICNVNHKPSNTKVDKKVEPKSCDKTHTCPPCPAPEAAGGPSVFLFPPKPKDTLMISRTPEVTCVVVDVSHEDPEVKFNWYVDGVEVHNAKTKPREEQYASTYRVVSVLTVLHQDWLNGKEYKCKVSNKALPAPIEKTISKAKGQPREPQVYTLPPSRCELTKNQVSLSCAVKGFYPSDIAVEWESNGQPENNYKTTPPVLDSDGSFFLVSKLTVDKSRWQQGNVFSCSVMHEALHNHYTQKSLSLSPDYKDDDDK
chain: EPKSSDKTHTCPPCPAPELLGGPSVFLFPPKPKDTLMISRTPEVTCVVVDVSHEDPEVKFNWYVDGVEVHNAKTKPREEQYNSTYRVVSVLTVLHQDWLNGKEYKCKVSNKALPAPIEKTISKAKGQPREPQVCTLPPSRDELTKNQVSLWCLVKGFYPSDIAVEWESNGQPENNYKTTPPVLDSDGSFFLYSKLTVDKSRWQQGNVFSCSVMHEALHNRYTQKSLSLSP
light: DIVMTQSPLSLPVTPGEPASISCRSSQSLVHSNRNTYLHWYQQKPGQAPRLLIYKVSNRFSGVPDRFSGSGSGTDFTLKISRVEAEDVGVYYCGQGTQVPYTFGQGTKLEIKRTVAAPSVFIFPPSDEQLKSGTASVVCLLNNFYPREAKVQWKVDNALQSGNSQESVTEQDSKDSTYSLSSTLTLSKADYEKHKVYACEVTHQGLSSPVTKSFNRGEC
Question: With B1 as the binder, how does the “ratio of amounts bound Z=Y/X (altered form / CE115HA000)” value read?
Answer: 2.35

B2: CE115HA000 E61A one-arm antibody (antibody, human IgG1, kappa, L234A L235A, N297A, name in Kabat numbering)
heavy: B1 heavy with E64A, Q110D
chain: B1 chain
light: B1 light
Question: For B2, which “ratio of amounts bound Z=Y/X (altered form / CE115HA000)” value is on record?
Answer: 1.09

B3: CE115HA000 H35D one-arm antibody (antibody, human IgG1, kappa, L234A L235A, N297A, name in Kabat numbering)
heavy: B1 heavy with H35D, Q110D
chain: B1 chain
light: B1 light
Question: Which “ratio of amounts bound Z=Y/X (altered form / CE115HA000)” value does the source give for B3 here?
Answer: 0.2

B4: CE115HA000 D101S one-arm antibody (antibody, human IgG1, kappa, L234A L235A, N297A, name in Kabat numbering)
heavy: B1 heavy with Q110S
chain: B1 chain
light: B1 light
Question: Which “ratio of amounts bound Z=Y/X (altered form / CE115HA000)” value does the source give for B4 here?
Answer: 1.16

B5: CE115HA000 G98R one-arm antibody (antibody, human IgG1, kappa, L234A L235A, N297A, name in Kabat numbering)
heavy: B1 heavy with G104R, Q110D
chain: B1 chain
light: B1 light
Question: With B5 as the binder, how does the “ratio of amounts bound Z=Y/X (altered form / CE115HA000)” value read?
Answer: 2.96

B6: CE115HA000 G65E one-arm antibody (antibody, human IgG1, kappa, L234A L235A, N297A, name in Kabat numbering)
heavy: B1 heavy with G68E, Q110D
chain: B1 chain
light: B1 light
Question: Which “ratio of amounts bound Z=Y/X (altered form / CE115HA000)” value does the source give for B6 here?
Answer: 0.78

B7: CE115HA000 E61P one-arm antibody (antibody, human IgG1, kappa, L234A L235A, N297A, name in Kabat numbering)
heavy: B1 heavy with E64P, Q110D
chain: B1 chain
light: B1 light
Question: For B7, which “ratio of amounts bound Z=Y/X (altered form / CE115HA000)” value is on record?
Answer: 1.07

B8: CE115HA000 G98Q one-arm antibody (antibody, human IgG1, kappa, L234A L235A, N297A, name in Kabat numbering)
heavy: B1 heavy with G104Q, Q110D
chain: B1 chain
light: B1 light
Question: B8 was tested. Which “ratio of amounts bound Z=Y/X (altered form / CE115HA000)” value did it give?
Answer: 1.22

B9: CE115HA000 G100bL one-arm antibody (antibody, human IgG1, kappa, L234A L235A, N297A, name in Kabat numbering)
heavy: B1 heavy with G108L, Q110D
chain: B1 chain
light: B1 light
Question: With B9 as the binder, how does the “ratio of amounts bound Z=Y/X (altered form / CE115HA000)” value read?
Answer: 0.27

B10: CE115HA000 G98A one-arm antibody (antibody, human IgG1, kappa, L234A L235A, N297A, name in Kabat numbering)
heavy: B1 heavy with G104A, Q110D
chain: B1 chain
light: B1 light
Question: For B10, which “ratio of amounts bound Z=Y/X (altered form / CE115HA000)” value is on record?
Answer: 1.1

B11: CE115HA000 G98H one-arm antibody (antibody, human IgG1, kappa, L234A L235A, N297A, name in Kabat numbering)
heavy: B1 heavy with G104H, Q110D
chain: B1 chain
light: B1 light
Question: B11 was tested. Which “ratio of amounts bound Z=Y/X (altered form / CE115HA000)” value did it give?
Answer: 1.58

B12: CE115HA000 G100bS one-arm antibody (antibody, human IgG1, kappa, L234A L235A, N297A, name in Kabat numbering)
heavy: B1 heavy with G108S, Q110D
chain: B1 chain
light: B1 light
Question: For B12, which “ratio of amounts bound Z=Y/X (altered form / CE115HA000)” value is on record?
Answer: 0.52

B13: CE115HA000 D101R one-arm antibody (antibody, human IgG1, kappa, L234A L235A, N297A, name in Kabat numbering)
heavy: B1 heavy with Q110R
chain: B1 chain
light: B1 light
Question: Which “ratio of amounts bound Z=Y/X (altered form / CE115HA000)” value does the source give for B13 here?
Answer: 0.24

B14: CE115HA000 G65D one-arm antibody (antibody, human IgG1, kappa, L234A L235A, N297A, name in Kabat numbering)
heavy: B1 heavy with G68D, Q110D
chain: B1 chain
light: B1 light
Question: With B14 as the binder, how does the “ratio of amounts bound Z=Y/X (altered form / CE115HA000)” value read?
Answer: 0.76

B15: CE115HA000 G100bY one-arm antibody (antibody, human IgG1, kappa, L234A L235A, N297A, name in Kabat numbering)
heavy: B1 heavy with G108Y, Q110D
chain: B1 chain
light: B1 light
Question: How did the “ratio of amounts bound Z=Y/X (altered form / CE115HA000)” value turn out when B15 was run?
Answer: 0.23

B16: CE115HA000 D101V one-arm antibody (antibody, human IgG1, kappa, L234A L235A, N297A, name in Kabat numbering)
heavy: B1 heavy with Q110V
chain: B1 chain
light: B1 light
Question: Which “ratio of amounts bound Z=Y/X (altered form / CE115HA000)” value does the source give for B16 here?
Answer: 1.33

B17: CE115HA000 H35F one-arm antibody (antibody, human IgG1, kappa, L234A L235A, N297A, name in Kabat numbering)
heavy: B1 heavy with H35F, Q110D
chain: B1 chain
light: B1 light
Question: For B17, which “ratio of amounts bound Z=Y/X (altered form / CE115HA000)” value is on record?
Answer: 0.21

B18: CE115HA000 G98K one-arm antibody (antibody, human IgG1, kappa, L234A L235A, N297A, name in Kabat numbering)
heavy: B1 heavy with G104K, Q110D
chain: B1 chain
light: B1 light
Question: With B18 as the binder, how does the “ratio of amounts bound Z=Y/X (altered form / CE115HA000)” value read?
Answer: 2.83

B19: CE115HA000 F29V one-arm antibody (antibody, human IgG1, kappa, L234A L235A, N297A, name in Kabat numbering)
heavy: B1 heavy with F29V, Q110D
chain: B1 chain
light: B1 light
Question: Which “ratio of amounts bound Z=Y/X (altered form / CE115HA000)” value does the source give for B19 here?
Answer: 0.36

B20: CE115HA000 G98D one-arm antibody (antibody, human IgG1, kappa, L234A L235A, N297A, name in Kabat numbering)
heavy: B1 heavy with G104D, Q110D
chain: B1 chain
light: B1 light
Question: Which “ratio of amounts bound Z=Y/X (altered form / CE115HA000)” value does the source give for B20 here?
Answer: 0.26

B21: CE115HA000 H35E one-arm antibody (antibody, human IgG1, kappa, L234A L235A, N297A, name in Kabat numbering)
heavy: B1 heavy with H35E, Q110D
chain: B1 chain
light: B1 light
Question: Which “ratio of amounts bound Z=Y/X (altered form / CE115HA000)” value does the source give for B21 here?
Answer: 0.19

B22: CE115HA000 E61Q one-arm antibody (antibody, human IgG1, kappa, L234A L235A, N297A, name in Kabat numbering)
heavy: B1 heavy with E64Q, Q110D
chain: B1 chain
light: B1 light
Question: For B22, which “ratio of amounts bound Z=Y/X (altered form / CE115HA000)” value is on record?
Answer: 1.07

B23: CE115HA000 G98P one-arm antibody (antibody, human IgG1, kappa, L234A L235A, N297A, name in Kabat numbering)
heavy: B1 heavy with G104P, Q110D
chain: B1 chain
light: B1 light
Question: With B23 as the binder, how does the “ratio of amounts bound Z=Y/X (altered form / CE115HA000)” value read?
Answer: 1.02

B24: CE115HA000 D101Y one-arm antibody (antibody, human IgG1, kappa, L234A L235A, N297A, name in Kabat numbering)
heavy: B1 heavy with Q110Y
chain: B1 chain
light: B1 light
Question: For B24, which “ratio of amounts bound Z=Y/X (altered form / CE115HA000)” value is on record?
Answer: 0.49

B25: CE115HA000 D101T one-arm antibody (antibody, human IgG1, kappa, L234A L235A, N297A, name in Kabat numbering)
heavy: B1 heavy with Q110T
chain: B1 chain
light: B1 light
Question: With B25 as the binder, how does the “ratio of amounts bound Z=Y/X (altered form / CE115HA000)” value read?
Answer: 0.79

B26: CE115HA000 E61D one-arm antibody (antibody, human IgG1, kappa, L234A L235A, N297A, name in Kabat numbering)
heavy: B1 heavy with E64D, Q110D
chain: B1 chain
light: B1 light
Question: Which “ratio of amounts bound Z=Y/X (altered form / CE115HA000)” value does the source give for B26 here?
Answer: 0.91

B27: CE115HA000 G98T one-arm antibody (antibody, human IgG1, kappa, L234A L235A, N297A, name in Kabat numbering)
heavy: B1 heavy with G104T, Q110D
chain: B1 chain
light: B1 light
Question: Which “ratio of amounts bound Z=Y/X (altered form / CE115HA000)” value does the source give for B27 here?
Answer: 1.05

B28: CE115HA000 G100bE one-arm antibody (antibody, human IgG1, kappa, L234A L235A, N297A, name in Kabat numbering)
heavy: B1 heavy with G108E, Q110D
chain: B1 chain
light: B1 light
Question: How did the “ratio of amounts bound Z=Y/X (altered form / CE115HA000)” value turn out when B28 was run?
Answer: 0.26

B29: CE115HA000 G98S one-arm antibody (antibody, human IgG1, kappa, L234A L235A, N297A, name in Kabat numbering)
heavy: B1 heavy with G104S, Q110D
chain: B1 chain
light: B1 light
Question: How did the “ratio of amounts bound Z=Y/X (altered form / CE115HA000)” value turn out when B29 was run?
Answer: 1.01

B30: CE115HA000 G100bD one-arm antibody (antibody, human IgG1, kappa, L234A L235A, N297A, name in Kabat numbering)
heavy: B1 heavy with G108D, Q110D
chain: B1 chain
light: B1 light
Question: B30 was tested. Which “ratio of amounts bound Z=Y/X (altered form / CE115HA000)” value did it give?
Answer: 0.27

B31: CE115HA000 G100bF one-arm antibody (antibody, human IgG1, kappa, L234A L235A, N297A, name in Kabat numbering)
heavy: B1 heavy with G108F, Q110D
chain: B1 chain
light: B1 light
Question: With B31 as the binder, how does the “ratio of amounts bound Z=Y/X (altered form / CE115HA000)” value read?
Answer: 0.3

B32: CE115HA000 G98Y one-arm antibody (antibody, human IgG1, kappa, L234A L235A, N297A, name in Kabat numbering)
heavy: B1 heavy with G104Y, Q110D
chain: B1 chain
light: B1 light
Question: How did the “ratio of amounts bound Z=Y/X (altered form / CE115HA000)” value turn out when B32 was run?
Answer: 2.22
